{"source": "paper PMC3754857", "molecular_target": "OX40-R65C (human OX40 with p.Arg65Cys), expressed ectopically on cells (human) (UniProt P43489)", "sequence (P43489 29-277 R65C)": "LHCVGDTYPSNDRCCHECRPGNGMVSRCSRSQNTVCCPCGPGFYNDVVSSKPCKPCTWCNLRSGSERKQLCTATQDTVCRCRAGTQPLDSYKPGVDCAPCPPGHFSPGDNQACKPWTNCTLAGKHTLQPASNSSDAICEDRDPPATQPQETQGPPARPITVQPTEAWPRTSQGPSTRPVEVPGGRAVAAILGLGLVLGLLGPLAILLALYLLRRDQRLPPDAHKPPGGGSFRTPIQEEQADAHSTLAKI", "assay": "flow cytometry on cells"}
{"substance": "biotinylated recombinant soluble human OX40 ligand (OX40L) (from UniProt P23510 51-183)", "values": [{"measurement": "fold decrease of OX40L binding against cells expressing OX40-WT", "value": 16, "unit": "fold"}]}
